Data reported in the supplement of paper PMC9112550, “Optimization of the antimicrobial peptide Bac7 by deep mutational scanning” (BMC Biology, 2022).

These sequences were tested on Escherichia coli TOP10 (assay: shrunken log2 fold change of peptide-encoding DNA abundance (4.5 h post-induction vs induction); higher = less antimicrobial activity (less host growth inhibition)). Settings: time post-induction: 4.5 h; library: site-saturation at positions 5, 18, 19, 20.
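Note: peptides expressed intracellularly from a pBAD plasmid library in pooled LB shake-flask culture, induced with 0.3% L-arabinose, DNA abundance read by NGS, three biological replicates, DESeq2 with apeglm shrinkage.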

Sequence	shrunken log2 fold change
RRIRWRPPRLPRPRPRPHKRPRP	0.0239
RRIRWRPPRLPRPRPRPHLDPRP	-0.0108
RRIRWRPPRLPRPRPRPHLVPRP	0.392
RRIRWRPPRLPRPRPRPHMNPRP	-0.667
RRIRWRPPRLPRPRPRPHNIPRP	-0.691
RRIRWRPPRLPRPRPRPHPAPRP	0.35
RRIRWRPPRLPRPRPRPHPMPRP	0.408
RRIRWRPPRLPRPRPRPHQPPRP	0.145
RRIRWRPPRLPRPRPRPHSCPRP	-0.0379
RRIRWRPPRLPRPRPRPHSIPRP	-0.143
RRIRWRPPRLPRPRPRPHTAPRP	-0.0505
RRIRWRPPRLPRPRPRPHTFPRP	-0.0424
RRIRWRPPRLPRPRPRPHVFPRP	-0.154
RRIRWRPPRLPRPRPRPHVVPRP	0.0851
RRIRWRPPRLPRPRPRPIALPRP	0.0387
RRIRWRPPRLPRPRPRPIAQPRP	0.582
RRIRWRPPRLPRPRPRPICTPRP	0.537
RRIRWRPPRLPRPRPRPIDRPRP	-0.156
RRIRWRPPRLPRPRPRPIEHPRP	-0.133
RRIRWRPPRLPRPRPRPIEKPRP	-0.221
RRIRWRPPRLPRPRPRPIERPRP	0.0857
RRIRWRPPRLPRPRPRPIGCPRP	0.268
RRIRWRPPRLPRPRPRPIHKPRP	-0.0298
RRIRWRPPRLPRPRPRPIKWPRP	-0.18
RRIRWRPPRLPRPRPRPILEPRP	-0.548

Sequence	shrunken log2 fold change
RRIRWRPPRLPRPRPRPILIPRP	-0.037
RRIRWRPPRLPRPRPRPIMEPRP	0.0164
RRIRWRPPRLPRPRPRPIMHPRP	-0.174
RRIRWRPPRLPRPRPRPIMWPRP	0.181
RRIRWRPPRLPRPRPRPINEPRP	0.402
RRIRWRPPRLPRPRPRPINPPRP	-0.247
RRIRWRPPRLPRPRPRPINYPRP	-0.387
RRIRWRPPRLPRPRPRPIPDPRP	-0.0879
RRIRWRPPRLPRPRPRPIRDPRP	0.0528
RRIRWRPPRLPRPRPRPITMPRP	-0.0679
RRIRWRPPRLPRPRPRPIVAPRP	0.541
RRIRWRPPRLPRPRPRPIWEPRP	0.00194
RRIRWRPPRLPRPRPRPIYAPRP	-0.0827
RRIRWRPPRLPRPRPRPIYCPRP	-0.581
RRIRWRPPRLPRPRPRPIYWPRP	-0.208
RRIRWRPPRLPRPRPRPKCEPRP	0.359
RRIRWRPPRLPRPRPRPKDNPRP	-0.00672
RRIRWRPPRLPRPRPRPKEMPRP	0.476
RRIRWRPPRLPRPRPRPKENPRP	0.373
RRIRWRPPRLPRPRPRPKFTPRP	-0.119
RRIRWRPPRLPRPRPRPKGCPRP	-0.00617
RRIRWRPPRLPRPRPRPKGTPRP	-0.0654
RRIRWRPPRLPRPRPRPKGYPRP	0.0648
RRIRWRPPRLPRPRPRPKHMPRP	-0.063
RRIRWRPPRLPRPRPRPKKMPRP	0.0841

Sequence	shrunken log2 fold change
RRIRWRPPRLPRPRPRPKKTPRP	0.0382
RRIRWRPPRLPRPRPRPKKWPRP	0.254
RRIRWRPPRLPRPRPRPKLCPRP	0.0167
RRIRWRPPRLPRPRPRPKNAPRP	0.202
RRIRWRPPRLPRPRPRPKPEPRP	0.351
RRIRWRPPRLPRPRPRPKPNPRP	0.367
RRIRWRPPRLPRPRPRPKPQPRP	0.391
RRIRWRPPRLPRPRPRPKQLPRP	-0.0021
RRIRWRPPRLPRPRPRPKREPRP	0.0441
RRIRWRPPRLPRPRPRPKRGPRP	0.239
RRIRWRPPRLPRPRPRPKSQPRP	0.263
RRIRWRPPRLPRPRPRPKVLPRP	0.155
RRIRWRPPRLPRPRPRPKVSPRP	0.198
RRIRWRPPRLPRPRPRPKYCPRP	-0.245
RRIRWRPPRLPRPRPRPKYLPRP	-0.1
RRIRWRPPRLPRPRPRPKYMPRP	-0.501
RRIRWRPPRLPRPRPRPKYPPRP	-0.582
RRIRWRPPRLPRPRPRPKYWPRP	0.0306
RRIRWRPPRLPRPRPRPLAPPRP	0.664
RRIRWRPPRLPRPRPRPLATPRP	0.766
RRIRWRPPRLPRPRPRPLDLPRP	0.00678
RRIRWRPPRLPRPRPRPLELPRP	0.106
RRIRWRPPRLPRPRPRPLEMPRP	0.373
RRIRWRPPRLPRPRPRPLEWPRP	0.0624
RRIRWRPPRLPRPRPRPLFEPRP	0.25

Sequence	shrunken log2 fold change
RRIRWRPPRLPRPRPRPLGFPRP	0.239
RRIRWRPPRLPRPRPRPLIFPRP	-0.215
RRIRWRPPRLPRPRPRPLKMPRP	0.234
RRIRWRPPRLPRPRPRPLLLPRP	0.152
RRIRWRPPRLPRPRPRPLNTPRP	0.0456
RRIRWRPPRLPRPRPRPLPHPRP	0.188
RRIRWRPPRLPRPRPRPLRHPRP	0.751
RRIRWRPPRLPRPRPRPLRKPRP	0.944
RRIRWRPPRLPRPRPRPLRLPRP	0.804
RRIRWRPPRLPRPRPRPLSLPRP	0.0175
RRIRWRPPRLPRPRPRPLTHPRP	-0.00362
RRIRWRPPRLPRPRPRPLVWPRP	0.426
RRIRWRPPRLPRPRPRPLVYPRP	0.114
RRIRWRPPRLPRPRPRPLWHPRP	-0.0484
RRIRWRPPRLPRPRPRPLYEPRP	-0.255
RRIRWRPPRLPRPRPRPLYFPRP	-0.613
RRIRWRPPRLPRPRPRPMAWPRP	-0.0156
RRIRWRPPRLPRPRPRPMCGPRP	0.205
RRIRWRPPRLPRPRPRPMCLPRP	-0.0933
RRIRWRPPRLPRPRPRPMDHPRP	-0.128
RRIRWRPPRLPRPRPRPMEDPRP	0.383
RRIRWRPPRLPRPRPRPMFNPRP	-0.156
RRIRWRPPRLPRPRPRPMIDPRP	-0.579
RRIRWRPPRLPRPRPRPMILPRP	-0.14
RRIRWRPPRLPRPRPRPMKIPRP	-0.0129

Sequence	shrunken log2 fold change
RRIRWRPPRLPRPRPRPMLRPRP	0.0624
RRIRWRPPRLPRPRPRPMMEPRP	0.134
RRIRWRPPRLPRPRPRPMMGPRP	0.0383
RRIRWRPPRLPRPRPRPMMVPRP	0.0168
RRIRWRPPRLPRPRPRPMNTPRP	-0.28
RRIRWRPPRLPRPRPRPMPPPRP	0.411
RRIRWRPPRLPRPRPRPMQDPRP	-0.13
RRIRWRPPRLPRPRPRPMQRPRP	0.667
RRIRWRPPRLPRPRPRPMRQPRP	-0.0376
RRIRWRPPRLPRPRPRPMSAPRP	0.338
RRIRWRPPRLPRPRPRPMSCPRP	-0.256
RRIRWRPPRLPRPRPRPMTNPRP	-0.0531
RRIRWRPPRLPRPRPRPMTSPRP	0.0704
RRIRWRPPRLPRPRPRPMVQPRP	0.121
RRIRWRPPRLPRPRPRPMYEPRP	-0.103
RRIRWRPPRLPRPRPRPMYLPRP	-0.507
RRIRWRPPRLPRPRPRPNDRPRP	0.174
RRIRWRPPRLPRPRPRPNEGPRP	-0.0387
RRIRWRPPRLPRPRPRPNFLPRP	-0.308
RRIRWRPPRLPRPRPRPNFMPRP	0.0497
RRIRWRPPRLPRPRPRPNGAPRP	0.161
RRIRWRPPRLPRPRPRPNGTPRP	1.67
RRIRWRPPRLPRPRPRPNHIPRP	-0.569
RRIRWRPPRLPRPRPRPNHYPRP	-0.605
RRIRWRPPRLPRPRPRPNIDPRP	-0.21

Sequence	shrunken log2 fold change
RRIRWRPPRLPRPRPRPNIMPRP	-0.296
RRIRWRPPRLPRPRPRPNKEPRP	-0.0697
RRIRWRPPRLPRPRPRPNKFPRP	-0.369
RRIRWRPPRLPRPRPRPNLRPRP	0.174
RRIRWRPPRLPRPRPRPNMEPRP	0.0936
RRIRWRPPRLPRPRPRPNMGPRP	-0.0382
RRIRWRPPRLPRPRPRPNMIPRP	-0.114
RRIRWRPPRLPRPRPRPNRDPRP	-0.00925
RRIRWRPPRLPRPRPRPNRFPRP	-0.0274
RRIRWRPPRLPRPRPRPNRVPRP	-0.0395
RRIRWRPPRLPRPRPRPNSFPRP	-0.0131
RRIRWRPPRLPRPRPRPNTTPRP	-0.418
RRIRWRPPRLPRPRPRPNVGPRP	-0.129
RRIRWRPPRLPRPRPRPNWDPRP	-0.0442
RRIRWRPPRLPRPRPRPNWWPRP	0.182
RRIRWRPPRLPRPRPRPNYKPRP	-0.552
RRIRWRPPRLPRPRPRPNYMPRP	-0.385
RRIRWRPPRLPRPRPRPNYRPRP	-0.034
RRIRWRPPRLPRPRPRPNYSPRP	-0.15
RRIRWRPPRLPRPRPRPPAVPRP	0.698
RRIRWRPPRLPRPRPRPPFGPRP	0.274
RRIRWRPPRLPRPRPRPPFQPRP	0.248
RRIRWRPPRLPRPRPRPPGDPRP	0.88
RRIRWRPPRLPRPRPRPPHPPRP	0.373
RRIRWRPPRLPRPRPRPPKCPRP	0.156
